Values belong to the molecule of their own block, whether it stands above or below them.
Columns and labels:
[1] = molecular target: AP-endonuclease 1 (human) (UniProt P27695); assay: SPR; Biacore X-100; APE1 amine-coupled on a CM5 chip, 25 °C; LIG1 0-1.6 µM injected as analyte in 20 mM HEPES pH 7.4, 150 mM NaCl, 3 mM EDTA, 0.005% Surfactant P20; 1:1 (Langmuir) fit
[2] = molecular target: T1, LIG1 EE/AA (C-terminal, Δ261) (Homo sapiens, UniProt P18858 262-919, E346A;E592A); assay: X-ray crystallography (2.9 Å); AMP as DNA-AMP (step 2); no Mg2+; Crystallization conditions not in the material; LIG1 final purification buffer 20 mM Tris-HCl pH 7.0, 200 mM NaCl, 1 mM DTT; storage 25 mM Tris-HCl pH 7.0, 200; conditions: protein: recombinant; nicked duplex: 11-mer upstream + 7-mer 5'-P downstream on 18-mer template; blunt ends; A:T at nick 3'-end
T1 sequence (P18858 262-919 E346A/E592A): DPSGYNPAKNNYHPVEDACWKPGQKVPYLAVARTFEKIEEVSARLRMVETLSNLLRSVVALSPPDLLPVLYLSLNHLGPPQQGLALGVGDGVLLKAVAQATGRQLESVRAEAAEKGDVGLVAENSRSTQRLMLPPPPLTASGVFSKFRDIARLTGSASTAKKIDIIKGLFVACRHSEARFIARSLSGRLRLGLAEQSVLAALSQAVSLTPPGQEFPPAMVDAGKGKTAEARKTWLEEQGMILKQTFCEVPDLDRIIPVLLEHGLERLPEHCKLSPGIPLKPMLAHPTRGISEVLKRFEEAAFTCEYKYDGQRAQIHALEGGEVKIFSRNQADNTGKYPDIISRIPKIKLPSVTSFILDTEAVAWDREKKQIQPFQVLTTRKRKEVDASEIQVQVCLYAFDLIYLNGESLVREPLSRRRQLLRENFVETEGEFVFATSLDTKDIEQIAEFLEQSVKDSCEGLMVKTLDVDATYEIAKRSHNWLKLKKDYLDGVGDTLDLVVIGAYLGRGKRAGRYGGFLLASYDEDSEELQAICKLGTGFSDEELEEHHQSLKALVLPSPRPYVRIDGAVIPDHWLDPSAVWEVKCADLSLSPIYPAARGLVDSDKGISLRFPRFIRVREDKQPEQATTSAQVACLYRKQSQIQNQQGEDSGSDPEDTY

[3] = molecular target: T1, LIG1 EE/AA (C-terminal, Δ261); assay: X-ray crystallography (3.0 Å); AMP as DNA-AMP (step 2); no Mg2+; Crystallization conditions not in the material; LIG1 final purification buffer 20 mM Tris-HCl pH 7.0, 200 mM NaCl, 1 mM DTT; storage 25 mM Tris-HCl pH 7.0, 200; conditions: protein: recombinant; nicked duplex: 11-mer upstream + 7-mer 5'-P downstream on 18-mer template; blunt ends; G:T wobble mismatch at nick 3'-end
[4] = molecular target: T1, LIG1 EE/AA (C-terminal, Δ261); assay: X-ray crystallography (2.8 Å); AMP covalently on K568 (LIG1-AMP, step 1); no Mg2+; Crystallization conditions not in the material; LIG1 final purification buffer 20 mM Tris-HCl pH 7.0, 200 mM NaCl, 1 mM DTT; storage 25 mM Tris-HCl pH 7.0, 200; conditions: protein: recombinant; nicked duplex: 11-mer upstream + 7-mer 5'-P downstream on 18-mer template; blunt ends; A:C wobble mismatch at nick 3'-end

Sequence of AP-endonuclease 1 (human) (P27695 whole entry): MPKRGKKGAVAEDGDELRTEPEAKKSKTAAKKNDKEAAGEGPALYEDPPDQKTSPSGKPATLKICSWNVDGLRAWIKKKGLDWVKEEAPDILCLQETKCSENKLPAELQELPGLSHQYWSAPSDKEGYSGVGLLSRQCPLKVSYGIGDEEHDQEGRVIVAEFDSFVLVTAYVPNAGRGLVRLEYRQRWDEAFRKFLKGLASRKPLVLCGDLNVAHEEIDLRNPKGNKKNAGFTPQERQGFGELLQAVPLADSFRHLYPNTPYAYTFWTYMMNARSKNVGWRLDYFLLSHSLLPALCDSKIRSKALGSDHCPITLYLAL

Kd [1]: 117 nM
Molecule: DNA ligase I (from UniProt P18858 1-919) (enzyme)

B1: nick DNA 3'-A:T (dsDNA)
DNA 1: GCTGATGCGTA
DNA 2: GTCGGAC
DNA 3: GTCCGACTACGCATCAGC
modifications: 5'-phosphate on downstream strand (GTCGGAC); adenylated (5'-AMP) in the crystal
binding result [2]: binds

B2: nick DNA 3'-G:T (dsDNA)
DNA 1: GCTGATGCGTG
DNA 2: GTCGGAC
DNA 3: GTCCGACTACGCATCAGC
modifications: 5'-phosphate on downstream strand (GTCGGAC); adenylated (5'-AMP) in the crystal
binding result [3]: binds

B3: nick DNA 3'-A:C (dsDNA)
DNA 1: GCTGATGCGTA
DNA 2: GTCGGAC
DNA 3: GTCCGACCACGCATCAGC
modifications: 5'-phosphate on downstream strand (GTCGGAC), not adenylated
binding result [4]: binds

Reference: article PMC9256674, “Structures of LIG1 that engage with mutagenic mismatches inserted by polβ in base excision repair”
